The results in this text go back to article PMC7394266.

Assay [1] has as its target PD-L1 IgV-TIM-3 chimera with K124S in the PD-L1 IgV domain, on transfected COS cells (human) (UniProt Q9NZQ7). Briefly: flow cytometry on cells. (In general: In flow cytometry, cells or beads pass a laser one at a time.)
The target of assay [2] is PD-L1 IgV-TIM-3 chimera with M115A in the PD-L1 IgV domain, on transfected COS cells (human) (UniProt Q9NZQ7). Put plainly: flow cytometry on cells.

With “human B7–1-hIgG1 recombinant fusion protein (from UniProt P33681 35-242) (Fc fusion)”, the percent decrease in binding against the unmutated chimera in assay [1] and in assay [2] was 80% in each case.
